Experimental data published in patent WO2022138911A1 (dated 2022).

Target: SARS-CoV2 Spike protein (ECD, His & Flag Tag) (GenScript, Z03481) (135 kDa) (SARS-CoV2 virus, UniProt P0DTC2 14-1213)

Binder | Kd
purified recombinant 7G7.1 antibody (antibody, human IgG1, lambda) heavy: not shown light: SYELTQPPSVSVSPGQTARISCSGDALPKEYAYWYQQKPGQAPVLVIYKDSERPSGIPERFSGSSSGTTVTLTISGVQAEDEADYYCQLADSSMHYVVFGGGTKLTVLGQPKAAPSVTLFPPSSEELQANKATLVCLISDFYPGAVTVAWKADSSPVKAGVETTTPSKQSNNKYAASSYLSLTPEQWKSHRSYSCQVTHEGSTVEKTVAPTECS | 2.04 nM
purified recombinant 7G7.2 antibody (antibody, human IgG1, kappa) heavy: not shown light: SYELTQPPSVSVSPGQTARISCSGDALPKEYAYWYQQKPGQAPVLVIYKDSERPSGIPERFSGSSSGTTVTLTISGVQAEDEADYYCQLADSSMHYVVFGGGTKLTVLRTVAAPSVFIFPPSDEQLKSGTASVVCLLNNFYPREAKVQWKVDNALQSGNSQESVTEQDSKDSTYSLSSTLTLSKADYEKHKVYACEVTHQGLSSPVTKSFNRGEC | 1.55 nM
